FAM = fluorophore of the FRET substrate
Assays:
human granzyme B [1] = target: T1, human granzyme B (Homo sapiens, UniProt P10144); assay: Direct detection of secreted granzyme B with peptide substrates (Example 10); assay type: biochemical; details: for signal to background: ionomycin 10 uM
T1 construct: expressed in transfected cells; host or cells: supernatant of RBL-2H3 stably transfected with human granzyme B, treated with ionomycin
Method: Human granzyme B was used as a model enzyme. […] Cleavage of FAM-TAMRA labelled peptide was detected by fluorescence using excitation at 485 nm and emission at 535 nm and labelled peptide at 1 uM final concentration.
For each substrate the exocytosis of 50.000, 25.000, 12.500, 6.250, 3.125, 1560, 780 and 390 cells was analysed. Cells were seeded the night before experiment at the above densities in 96 well plates using 100 uL of complete cell culture medium per well. The day of experiment cells were washed with HBSS buffer and exocytosis was initiated by addition of ionomycin at 10 uM final concentration in HBSS buffer and incubation for 60 minutes at 37 Celsius degrees. Controls of cells treated with HBSS buffer only were included for basal release determination. Five replicas of each cell density for each substrate were seeded. Supernatant from cells were centrifuged at 400 g for 5 minutes and used for fluorescence determination in 96 well plates. Released AMC was measured by excitation at 360 nm and emission at 460 nm in a BMG Labtech microplate fluorimeter in 96 well microplates while released FAM was measured by excitation at 485 nm and emission at 535 nm in the same reader. Microplates were incubated at 37 Celsius degrees on the reader and were kinetically read at 0, 15, 30, 45 and 60 minutes. Control wells with substrate only in HBSS buffer were included to subtract autofluorescence of substrates to both cells treated with ionomycin and to cells treated with HBSS buffer only. An arbitrary signal to background of about two was selected as sensitivity.

RBL-2H3 cells [2] = assay: Ionomycin-induced release of granule stored protease reporters from stable cell lines (Example 5); assay type: cell-based, Rat; details: stable RBL-2H3, 10 uM ionomycin 1 hour, supernatant equivalent to 100.000 cells, AMC substrate
From the text: As either tryptase-like enzymes, chymase-like enzymes, elastase-like enzymes or asp-ase like enzymes are useful for the methods of the present invention we selected human granzyme A (tryptase-like enzyme); human granzyme B (Asp-ase-like enzyme); human chymase (chymase-like enzyme) and human proteinase 3 (elastase-like enzyme) for further examples. Vectors were developed for stable expression of human granzyme A, human granzyme B, human chymase and human proteinase 3 under the control of hCMV-MoMLV5′LTR chimeric promoter. A hygromycin resistance cassette was included in the vector backbone for selection of stable populations of cells. The vector also included an IRES-NGFR cassette cloned downstream of granule stored protease reporter and thus, under the control of hCMV-MoMLV5′LTR promoter for flow cytometry and/or selection by MACS of stable cells expressing either human granzyme A or human granzyme B or human chymase or human proteinase 3. Each vector was individually electroporated using a microporator (Digital Bio Technology, South Korea) into RBL-2H3 and after 48 hours hygromycin at 1500 ug/mL was added to culture for selection. After selection for about 2 weeks cells were analysed by flow cytometry (Guava Technologies, USA) with an antibody against NGFR coupled to FITC. Positive population where magnetically separated by MACS using anti-NGFR-MACS sup.R (Miltenyi Biotec, Germany). Sorted populations were again analysed again by flow cytometry to check the sorting efficiency. Percentage of NGFR positive cells was always higher than 65 percent. Cells were seeded the night before experiment in 24 well microplates at 650.000 cells per well in 800 microliters of complete cell culture medium. Next day cells were washed with HBSS buffer and were treated with 10 uM ionomycin for 1 hour at 37 Celsius degrees in 200 uL of HBSS buffer and after centrifugation at 400 g for 5 minutes supernatants were analysed for activity with specific fluorescent substrates. Controls of cells incubated with HBSS buffer only were included. Fluorescent substrates were: VANR-AMC for granzyme A; PEEI-AMC for human neutrophil elastase; PTSY-AMC for human chymase; VADC-AMC for human proteinase 3 and IEPD-AMC for human granzyme B. Released AMC was measured by excitation at 360 nm and emission at 460 nm in a BMG Labtech microplate fluorimeter in 96 well microplates using 125 microliters of supernatant and 125 microliters of specific substrate at 400 micromol per liter in HBSS buffer. Microplates were incubated at 37 Celsius degrees on the reader and were kinetically read at 0, 15, 30, 45 and 60 minutes. Control wells with substrate only in HBSS buffer were included to subtract autofluorescence of substrates to both cells treated with ionomycin and to cells treated with HBSS buffer only. Autofluorescence of peptide substrates in HBSS buffer was about 3000 while fluorescence of cells treated with HBSS buffer only for 60 minutes at 37 Celsius degrees was about 5000, that is basal release in the absence of exocytosis modulator was about 2000. In contrast, fluorescence of ionomycin-induced release of human granzymes A and B was about 20.000 for a signal to background of 10 when using the supernatant equivalent to 100.000 cells; fluorescence of ionomycin-induced release of human chymase was about 30.000 for a signal to background of 15 when using the supernatant equivalent to 100.000 cells and fluorescence of ionomycin-induced release of human proteinase 3 was about 12.000 for a signal to background of 6 when using the supernatant equivalent to 100.000 cells. Thus, tryptase-like enzymes, chymase-like enzymes, elastase-like enzymes or asp-ase like enzymes can be stably expressed into granules of hemopoyetic cells with professional regulated exocytosis and such granule stored proteases are released by exocytosis modulators to produce sensors with good signal to background ratios using specific AMC-coupled peptide substrates. […]

RBL-2H3 cells [3] = assay: Ionomycin-induced release of granzyme B from different species, stable cell lines (Example 6); assay type: cell-based, Rat; details: 100.000 cells per well, 10 uM ionomycin 1 hour, IEPD-AMC
From the text: This experiment was designed to test if granule stored protease reporters from other species different from human could be used for the methods of the present invention. As an example we selected granzyme B from different species. Vectors were developed for expression of human, rat, horse and chimpanzee granzyme B and RBL-2H3 cells were individually transfected with the plasmids comprising the chimeric promoter of hCMV-MoMLV5′LTR-GranzymeB-IRES-NGFR with hygromycin resistance for stable transfections. Each vector was individually electroporated using a microporator (Digital Bio Technology, South Korea) into RBL-2H3 and after 48 hours hygromycin at 1500 ug/ml_was added to culture for selection. After selection for about 2 weeks cells were analysed by flow cytometry (Guava Technologies, USA) with an antibody against NGFR coupled to FITC. Positive population where magnetically separated by MACS using anti-NGFR-MACS sup.R (Miltenyi Biotec, Germany). Sorted populations were again analysed again by flow cytometry to check the sorting efficiency. Percentage of NGFR positive cells was always higher than 65 percent. Cells were seeded the night before experiment in 96 well microplates at 100.000 cells per well in 100 microliters of medium. Next day cells were washed with BSS buffer and were treated with 10 uM ionomycin for 1 hour at 37 Celsius degrees in 105 uL of HBSS buffer and after centrifugation at 400 g for 5 minutes supernatants were analysed for activity with specific fluorescent substrates. Controls of cells incubated with HBSS buffer only were included. Fluorescent substrate was IEPD-AMC for all granzymes B tested. Released AMC was measured by excitation at 360 nm and emission at 460 nm in a BMG Labtech microplate fluorimeter in 96 well microplates using 105 microliters of supernatant and 145 microliters of specific substrate at 345 micromol per liter in HBSS buffer. Microplates were incubated at 37 Celsius degrees on the reader and were kinetically read at 0, 15, 30, 45 and 60 minutes. Control wells with substrate only in HBSS buffer were included to subtract autofluorescence of substrates to both cells treated with ionomycin and to cells treated with HBSS buffer only.

hIL8 receptor (hIL8RA) = target: T2, hIL8 receptor (hIL8RA) (Homo sapiens, UniProt P25024); assay: Multiplex assay, Sensor A channel (hIL8RA and human granzyme A) (Example 14); assay type: cell-based; details: for Signal to background at 30 min: granzyme A substrate 1 uM
T2 construct: the entire human GPCR; mouse immunoglobulin kappa signal peptide (N); expressed in transfected cells
T2 sequence (P25024 3-350 limits assumed): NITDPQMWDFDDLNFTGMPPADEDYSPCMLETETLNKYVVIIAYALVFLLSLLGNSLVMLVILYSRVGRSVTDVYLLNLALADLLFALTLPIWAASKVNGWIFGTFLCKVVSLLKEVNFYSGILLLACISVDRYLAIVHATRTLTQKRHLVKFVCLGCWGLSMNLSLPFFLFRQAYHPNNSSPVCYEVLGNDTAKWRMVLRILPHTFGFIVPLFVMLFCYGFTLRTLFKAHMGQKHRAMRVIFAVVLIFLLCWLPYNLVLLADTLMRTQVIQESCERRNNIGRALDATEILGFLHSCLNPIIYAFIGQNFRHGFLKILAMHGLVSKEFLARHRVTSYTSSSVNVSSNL
From the text: (§1) The principle of multiplex reactions is illustrated in FIG. 5. RBL2H3 cells were stably transfected with a pair of a GPCR as exocytosis modulator and a granzyme as a granule stored reporter as described in example 9. Combinations included were: hIL8 receptor (hIL8RA) and human granzyme A (Sensor A) and CHRM2 and granzyme B expressing cells of example #12 (Sensor B). Human IL8 was used as agonist of hll_8R while carbachol was used as CHRM2 agonist. […] As both substrates uses the same pair of fluorophore (FAM) and quencher (TAMRA) only one substrate could be added to reaction vessel for specific detection at 535 nm after excitation at 485 nm. […] Sensors, agonists and substrates were mixed in a total volume of 20 uL of HBSS in a black walled 384 well microplate and the microplate was incubated at 37 Celsius degrees in a BMG-Labtech microplate fluorimeter and read at 0, 15, 30, 45 and 60 minutes.

CHRM2 = target: T3, CHRM2 (Homo sapiens, UniProt P08172); assay: Multiplex assay, Sensor B channel (CHRM2 and granzyme B) (Example 14); assay type: cell-based; details: Condition 9: Sensor A 12500 + Sensor B 5000 cells, IL8 10 uM, no carbachol, granzyme B substrate 1 uM
T3 construct: the entire human GPCR; mouse immunoglobulin kappa signal peptide (N); expressed in transfected cells
T3 sequence (P08172 2-466): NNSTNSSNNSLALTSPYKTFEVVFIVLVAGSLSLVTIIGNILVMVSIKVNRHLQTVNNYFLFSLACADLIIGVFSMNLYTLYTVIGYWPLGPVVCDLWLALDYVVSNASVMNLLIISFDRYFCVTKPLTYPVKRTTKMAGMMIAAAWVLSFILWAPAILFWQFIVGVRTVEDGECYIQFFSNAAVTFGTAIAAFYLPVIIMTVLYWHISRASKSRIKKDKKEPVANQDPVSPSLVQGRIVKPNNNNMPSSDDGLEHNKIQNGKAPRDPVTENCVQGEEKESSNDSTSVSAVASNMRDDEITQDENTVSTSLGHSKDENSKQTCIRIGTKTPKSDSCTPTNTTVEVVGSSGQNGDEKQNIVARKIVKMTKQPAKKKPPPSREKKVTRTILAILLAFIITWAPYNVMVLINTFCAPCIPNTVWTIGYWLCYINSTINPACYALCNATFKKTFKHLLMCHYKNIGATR
From the text: as §1

human granzyme B [4] = target: T1, human granzyme B; assay: Procaspase-3 zymogen activation by secreted granzyme B, DEVD-AMC readout (Example 11); assay type: biochemical
From the text: As a model we selected human granzyme B. A human granzyme B activated-zymogen was developed from human native unmodified procaspase-3 (huCasp3) and from a mutated human procaspase-3 (mut-huCasp3) where the amino acids from 172 to 179 has been changed from […]to […] that is Threonine at 174 has been mutated to Proline because IEPD is a better granzyme B substrate than IETD and serine at 176 has been mutated to valine, glycine at 177 has been mutated to leucine, valine at 178 has been mutated to methionine and aspartic acid at 179 has been mutated to glutamic acid in order to both improve cleavage efficiency by human granzyme B and to reduce autoactivation of procaspase-3. cDNA from both variants of human pro-caspase-3 comprising amino acids from Serine at 29 to Aspartic acid at 192 were cloned into pET43a+ vector from Novagen. After sequencing expression vectors were transformed into BL21 DE3pLys E. coli strain for protein expression. Each protein was cloned with a polyhistidine tag at C-terminal end for purification. Human native procaspase-3 (huCasp3) was induced for only 30 minutes to prevent autoactivation, while mutated procaspase-3 (mut-huCasp3) was induced both for 30 minutes and for 2 hours. DEVD-AMC substrate was used for detection of active caspase-3 with excitation at 360 nm and emission at 460 nm. A supernatant equivalent to 15.000 RBL-2H3 stably transfected with human granzyme B treated with 10 uM ionomycin for 60 minutes was used for zymogen activation. Human granzyme B activity of such supernatant when measured with IEPD-AMC produced a signal to background of 2.6 after incubation for 60 minutes at 37 Celsius degrees using a supernatant equivalent to 25.000 cells. Background of fluorescence of DEVD-AMC substrate was 2775 and was subtracted from both granzyme B treated caspase-3 and non-granzyme B treated caspase-3 (caspase-3 only) used as control and all samples were tested by triplicate.

T1 sequence (P10144 21-247): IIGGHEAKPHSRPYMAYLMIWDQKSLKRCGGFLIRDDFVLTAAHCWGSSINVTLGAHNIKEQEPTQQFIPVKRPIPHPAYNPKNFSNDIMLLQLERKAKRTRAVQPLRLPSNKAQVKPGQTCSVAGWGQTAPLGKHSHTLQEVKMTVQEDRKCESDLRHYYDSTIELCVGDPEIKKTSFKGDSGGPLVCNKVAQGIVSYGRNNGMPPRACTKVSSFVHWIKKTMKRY

Molecule: FAM-Ser-Ile-Glu-Pro-Asp-Ser-Gly-Ser-TAMRA ({FAM}-SIEPDSGS-{TAMRA}) [FAM-TAMRA peptide, custom designed FRET based granzyme B substrate]
- signal to background (human granzyme B [1]; 390 cells): < 2
- signal to background (human granzyme B [1]; 780 cells): 3
- times more sensitive for detection of granzyme B than IEPD-AMC peptide (human granzyme B [1]; sensitivity taken as 780 cells): more than 30 times

Molecule: Human granzyme B: Asp-ase-like serine protease (GZMB, NM_004131) used as granule stored reporter
- fluorescence of ionomycin-induced release (RBL-2H3 cells [2]): about 20.000
- signal to background (RBL-2H3 cells [2]): 10
- Fluorescence of supernatant from cells treated with ionomycin (RBL-2H3 cells [3]): 20,000
- signal to background (RBL-2H3 cells [3]): 10

Molecule: IL8: Human IL8 used as agonist of hIL8R
- Signal to background at 30 min (hIL8 receptor (hIL8RA); Condition 2: 12500 cells Sensor A, IL8 10 uM): 16
- Signal to background at 30 min (hIL8 receptor (hIL8RA); Condition 5: Sensor A 12500 + Sensor B 5000 cells, IL8 10 uM + carbachol 10 uM): 12.5
- maximal granzyme A activity secreted by sensor A upon IL8, relative to granzyme B activity secreted by sensor B upon carbachol (hIL8 receptor (hIL8RA); first experiment, data not shown): about 40%
- Signal to background at 30 min (CHRM2): 0.95

B1: Rat granzyme B: Granzyme B of rat (NM_138517) used as granule stored reporter (protein, UniProt P18291 21-248, looked up)
Granzyme B: IIGGHEAKPHSRPYMAYLQIMDEYSGSKKCGGFLIREDFVLTAAHCSGSKINVTLGAHNIKEQEKMQQIIPVVKIIPHPAYNSKTISNDIMLLKLKSKAKRSSAVKPLNLPRRNVKVKPGDVCYVAGWGKLGPMGKYSDTLQEVELTVQEDQKCESYLKNYFDKANEICAGDPKIKRASFRGDSGGPLVCKKVAAGIVSYGQNDGSTPRAFTKVSTFLSWIKKTMKKS
- Fluorescence of supernatant from cells treated with ionomycin (RBL-2H3 cells [3]): 22,000
- signal to background (RBL-2H3 cells [3]): 11

B2: Native (unmodified) huCasp-3: human native unmodified procaspase-3 zymogen expressed in E. coli with polyhistidine tag (protein, UniProt P42574 1-277, looked up)
pro-form: MENTENSVDSKSIKNLEPKIIHGSESMDSGISLDNSYKMDYPEMGLCIIINNKNFHKSTGMTSRSGTDVDAANLRETFRNLKYEVRNKNDLTREEIVELMRDVSKEDHSKRSSFVCVLLSHGEEGIIFGTNGPVDLKKITNFFRGDRCRSLTGKPKLFIIQACRGTELDCGIETDSGVDDDMACHKIPVEADFLYAYSTAPGYYSWRNSKDGSWFIQSLCAMLKQYADKLEFMHILTRVNRKVATEFESFSFDATFHAKKQIPCIVSMLTKELYFYH
modifications: pro-form polyhistidine tag
notes: human native unmodified procaspase-3 zymogen expressed in E. coli with polyhistidine tag
- times more sensitive than direct detection of secreted granzyme B with IEPD-AMC (human granzyme B [4]; 15.000 cells versus 25.000 cells): about 1.7 times
- Fluorescence of Caspase-3 only (human granzyme B [4]; no granzyme B, DEVD-AMC, background 2775 subtracted): 15775
- signal to background (S/B) (human granzyme B [4]; supernatant equivalent to 15.000 cells, DEVD-AMC): 2.8
- Fluorescence of caspase-3 treated with granzyme B (human granzyme B [4]; supernatant equivalent to 15.000 ionomycin treated cells, DEVD-AMC, background 2775 subtracted): 43548
